Laboratory results as given in PMC12199414, “A Self‐Assembling LYTAC Mediates CTGF Degradation and Remodels Inflammatory Tumor Microenvironment for Triple‐Negative Breast Cancer Therapy” (Advanced Science, 2025).

Assays:
CTGF = target: T1, CTGF (Homo sapiens, UniProt P29279); assay: ELISA of extracellular CTGF in culture media of TNBC cells; assay type: cell-based; settings: in vitro, BT549 and MDA-MB-231 culture media, 12 h
T1 construct: endogenous in cells; host or cells: BT549 and MDA-MB-231 (human TNBC cell lines)
T1 sequence (P29279 27-349): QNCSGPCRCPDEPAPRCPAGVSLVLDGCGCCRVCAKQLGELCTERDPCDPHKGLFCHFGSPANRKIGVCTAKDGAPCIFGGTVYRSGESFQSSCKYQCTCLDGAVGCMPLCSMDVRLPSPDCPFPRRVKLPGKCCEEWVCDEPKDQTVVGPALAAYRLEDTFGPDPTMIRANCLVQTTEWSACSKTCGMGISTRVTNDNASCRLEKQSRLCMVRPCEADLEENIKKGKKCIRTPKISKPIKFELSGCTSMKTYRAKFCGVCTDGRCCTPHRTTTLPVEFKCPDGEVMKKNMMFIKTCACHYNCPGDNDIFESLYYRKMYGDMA
Method: BT549 and MDA‐MB‐231 cells were treated with various concentrations of CL8‐M6P3 or NanoCLY for 12 h. Extracellular CTGF protein level in conditioned media was quantified by a human CTGF ELISA kit following the manufacturer's instructions (ab261851, Abcam and CSB‐E07875h, Cusabio). Extracellular CCN1, CCN3, and CCN4 protein levels were quantified using respective ELISA kits (HY‐P7842, HY‐P701327, HY‐P78051, MCE) following the manufacturer's instructions (CSB‐EL015956HU, CSB‐EL026119HU, CSB‐E13884h, Cusabio). Additionally, BSP and β‐CTx levels in serum were quantified by ELISA kit following the manufacturer's instructions (BPE10823, BPE10438, lengton).

[1] = Dynamic light scattering: size, PDI, zeta potential; assay type: physicochemical; settings: DLS, 500 µg/mL in PBS
Method: A solution of 1‐Dodecanethiol (0.5 mmol) and 2,2′‐Dithiodipyridine (0.6 mmol) in 10 mL MeOH was vigorously stirred for 3 h at room temperature. The reaction mixture was diluted with petroleum ether/ethyl acetate (50:1, v/v). The purified products 2‐(dodecyldisulfaneyl)pyridine were characterized by MS. CL8‐M6P3 (1.4 mg, 0.56 µmol, 1 eq.) and 2‐(dodecyldisulfaneyl)pyridine (261.7 µg, 0.84 µmol, 1.5 eq.) dissolved in 1 mL DMF/ddH2O (1/1, v:v) was vigorously stirred for 16 h at room temperature. The products were diluted with ddH2O. The aqueous layer was extracted with ethyl acetate three times, and filtered and concentrated under reduced pressure. For particle size measurement, NanoCLY was prepared at a final concentration of 500 µg/mL in PBS, sonicated for 30 min, and used for particle size analyzer (Malvern Panalytical, UK), transmission electron microscope (TEM) analysis (JEOL, Japan) and Nanosight NS300 (Malvern Panalytical, UK). 2‐(dodecyldisulfaneyl)pyridine, ESI‐MS calcd for C17H29NS2 [M + H]^+ 312.55, found 312.20. NanoCLY, ESI‐MS calcd for C107H176N27O47P3S2 [M + H]^+ 2750.77, found 1375.50.

[2] = Critical micelle concentration with pyrene; assay type: physicochemical; settings: pyrene fluorescence I390/I380, aqueous solution, sonicated 2 h
Method: The CMC value of NanoCLY in an aqueous solution was estimated by pyrene. Pyrene with the final concentration of 6.08 mg L^−1 was added 100 µL to Eppendorf tubes and dried overnight, and was added with 500 µL of various concentrations of NanoCLY (0.001, 0.006, 0.0125, 0.025, 0.05, 0.2, 0.6 mg mL^−1), and sonicated for 2 h. After sonicating, the supernatant samples were collected, and recorded the intensity ratios of I390/I380 by microplate reader Cytation 5 (Biotek, USA). The crossing point of the two linear fittings of the logarithm of NanoCLY concentrations was set as the CMC value.

[3] = Stability of nanoparticles in PBS; assay type: physicochemical; settings: PBS pH 7.4, 37 °C, n = 3
[4] = GSH response of NanoCLY (HPLC); assay type: physicochemical
Method: For in vitro experiments, NanoCLY (0.1 mg mL^−1) was incubated with varying concentrations of GSH (0, 2, 25 × 10^−5 M) in PBS at 37 °C for 6 h. After incubation, the aliquots were analyzed by NanoSight (Malvern Panalytical, UK), HPLC (Agilent, USA), and TEM (JEOL, Japan). For in vivo experiments, when tumor volume reached about 200 mm^3, mice were intratumorally injected with 50 µL NanoCLY (2.5 mg kg^−1), or NanoCLY (2.5 mg kg^−1) with a 20‐min preinjection of H2O2 (2.5 × 10^−2 M). Tumors were collected after 4 h for HPLC analysis.
(§1) For the DLS assay, NanoCLY solution was mixed with 50% mouse plasma and incubated for different time periods. After incubation, the aliquots were analyzed using DLS. For the NanoCLY stability assay under simulated plasma GSH conditions, NanoCLY solution was mixed with 1.5 × 10^−6 M GSH or 20% mouse plasma, and was incubated for different time periods. After incubation, the aliquots were diluted and analyzed by HPLC.

Plasma stability assay = assay type: in vitro ADME; settings: 50% mouse plasma (DLS) and 20% mouse plasma or 1.5 × 10^−6 M GSH (HPLC), different time periods, n = 3
Method: as §1

red blood cells = assay: Hemolysis assay; assay type: cell-based, mice; settings: mouse erythrocytes, 0-30 × 10^−6 M, 1 h, 37 °C, absorbance 570 nm
Method: The hemolytic activities of CL8, CL8‐M6P3, and NanoCLY were determined by monitoring hemoglobin release from red blood cells. Fresh erythrocytes were obtained from the whole blood of mice by centrifugation (1000 × g for 30 min at 4 °C), and washed three times with cold 0.9% NaCl. The erythrocytes were dispensed into 96‐well plates, incubated with CL8, CL8‐M6P3 and NanoCLY at specified concentrations (0, 0.3, 1, 3, 10, and 30 × 10^−6 M) for 1 h at 37 °C, centrifuged at 1000 × g for 10 min, the supernatant samples were collected, and the absorbance at 570 nm was measured by microplate reader Cytation 5 (Biotek, USA). The negative control group was defined as the absorbance obtained in 1× PBS (A PBS), and 100% hemolysis in 0.1%Triton X‐100 (v/v) (A Triton). The hemolysis percentage was calculated as: (A peptide − A PBS)/(ATriton − A PBS) × 100%.

extracellular CTGF degraded (CTGF): ≈ 50%
Substance: C12-CPSAAHYL-PEG3-[Pra(M6P)βAla]3-NH2 [NanoCLY, CL8-M6P3 joined to a lauryl chain via disulfide; self-assembling GSH-responsive LYTAC nanoparticle]
polymer dispersity index (PDI) [1]: 0.301 ± 0.059
hydrodynamic diameter (size) ([1]; sonicated 30 min): 118.0 ± 9.38 nm
critical micelle concentration (CMC) [2]: 55.1 µg/mL
stability in PBS (size and PDI) [3]: at least 72 h
stability under plasma-mimicking GSH ([4]; GSH 1.5 × 10⁻⁶ M, analytical HPLC 214 nm): remained stable
disulfide linker cleavage at TME-relevant GSH ([4]; GSH 2 × 10⁻⁵ and 2.5 × 10⁻⁴ M in PBS, 37 °C, 6 h, NanoCLY 0.1 mg mL^−1, analytical HPLC 214 nm): selective cleavage of the disulfide linker
size and structural integrity under plasma conditions (Plasma stability assay): retained its size and structural integrity
hemolysis safety (red blood cells): good hemolysis safety
